*1 amine or outer side, *2 acyl side, *3 side chain or, on linkers, in order; H or OH if unused. Primed or numbered codes have the meaning given here. Side-chain parts run from the residue outwards. [ ]: non-standard residue; d: D form. The star is where a group is joined. PEG12 = NCCOCCOCCOCCOCCOCCOCCOCCOCCOCCOCCOCCOCCC(=O)O; γGlu = O=C(O)[C@H](CCC(=O)[*:2])N[*:1]; 1Nal = N[C@@H](Cc1cccc2ccccc12)C(=O)O; Stearoyl = CCCCCCCCCCCCCCCCCC(=O)*; Palmitoyl = CCCCCCCCCCCCCCCC(=O)*; Nle = CCCC[C@H](N)C(=O)O; PEG2′ = PEG2 spacer unit; PEG2″ = not defined here; Aib = CC(C)(N)C(=O)O
T1: RXFP1 receptor (UniProt Q9HBX9 1-757, limits assumed)
T1 sequence (looked up): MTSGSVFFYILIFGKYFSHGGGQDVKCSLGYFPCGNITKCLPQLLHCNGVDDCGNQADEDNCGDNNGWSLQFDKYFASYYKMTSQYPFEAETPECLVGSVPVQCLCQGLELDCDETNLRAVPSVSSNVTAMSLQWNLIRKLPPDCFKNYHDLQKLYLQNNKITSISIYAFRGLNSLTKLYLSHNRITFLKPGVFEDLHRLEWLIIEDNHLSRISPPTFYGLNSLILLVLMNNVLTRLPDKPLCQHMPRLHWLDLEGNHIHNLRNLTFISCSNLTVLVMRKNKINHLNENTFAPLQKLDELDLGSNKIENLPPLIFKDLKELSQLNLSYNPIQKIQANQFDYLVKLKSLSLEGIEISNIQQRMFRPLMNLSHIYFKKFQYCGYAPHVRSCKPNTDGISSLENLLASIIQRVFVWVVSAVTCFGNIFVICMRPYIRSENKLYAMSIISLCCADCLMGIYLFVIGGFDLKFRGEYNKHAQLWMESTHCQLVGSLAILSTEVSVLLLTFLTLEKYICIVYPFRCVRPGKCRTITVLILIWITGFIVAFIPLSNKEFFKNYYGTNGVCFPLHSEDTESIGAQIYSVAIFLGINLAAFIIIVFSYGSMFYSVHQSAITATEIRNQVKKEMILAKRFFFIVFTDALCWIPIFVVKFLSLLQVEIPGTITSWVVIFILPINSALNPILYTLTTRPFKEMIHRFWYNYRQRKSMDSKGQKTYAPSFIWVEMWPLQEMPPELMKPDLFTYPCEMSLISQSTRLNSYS


Target: T1, RXFP1 receptor
Experiment: cell-based or functional assay

Binder | EC50 (nM), OVCAR 5 cells (cAMP) [nM] | EMax, OVCAR 5 cells (cAMP) [%]
Ac-LEGREKVRAQI[Aib][Aib]EG[Nle]STWS[Aib]RKK(Ac)[PEG2′][PEG2′][γGlu][γGlu]K([γGlu-Palmitoyl])-NH2 [peptide of SEQ ID NO: 118] | 1.79 | 86
Ac-LEGREKVRAK(Ac)I[Aib][Aib]EG[Nle]STWS[Aib]RKK(Ac)[PEG2′][PEG2′][PEG2′][PEG2′][γGlu][γGlu]K([γGlu-Palmitoyl])-NH2 [peptide of SEQ ID NO: 116] | 1 | 89
Ac-LEGREKVRAQI[Aib][Aib]EG[Nle]STWS[Aib]RKKK([γGlu-γGlu-PEG2″-PEG2″-PEG2″-γGlu-Stearoyl])-NH2 [peptide of SEQ ID NO: 106] | 0.34 | 93
Ac-LEGREKVRAK(Ac)I[Aib][Aib]EG[Nle]STWS[Aib]RKK(Ac)[PEG2′][PEG2′][PEG2′][γGlu][γGlu]K([γGlu-Palmitoyl])-NH2 [peptide of SEQ ID NO: 117] | 1.16 | 86
Ac-LEGREKVRAK(Ac)I[Aib][Aib]EG[Nle]STFS[Aib]RKK(Ac)K([PEG2″-PEG2″-PEG2″-γGlu-γGlu-γGlu-Stearoyl])-NH2 [peptide of SEQ ID NO: 112] | 0.32 | 88
Ac-LEGREKVRAK(Ac)I[Aib][Aib]EGQSTWS[Aib]RKKK([PEG2′-PEG2′-PEG2′-γGlu-γGlu-γGlu-γGlu-Stearoyl])-NH2 [peptide of SEQ ID NO: 115] | 0.17 | 93
Ac-LEGREKVRAQI[Aib][Aib]EG[Nle]STWS[Aib]RKKK[PEG2″][PEG2″][PEG2″][PEG2″][γGlu][γGlu][γGlu]K([γGlu-Palmitoyl])-NH2 [peptide of SEQ ID NO: 108] | 0.15 | 94
Ac-LEGREKVRAK(Ac)I[Aib][Aib]EG[Nle]STWS[Aib]RKK(Ac)[PEG2″][PEG2″][PEG2″]K([γGlu-γGlu-γGlu-Palmitoyl])-NH2 [peptide of SEQ ID NO: 114] | 1.34 | 90
Ac-LEGREKVRAQI[Aib][Aib]EG[Nle]STWS[Aib]RKK[PEG2″][PEG2″][PEG2″][γGlu][γGlu][γGlu]K([γGlu-Palmitoyl])-NH2 [peptide of SEQ ID NO: 110] | 0.17 | 80
Ac-LEGREKVRAQI[Aib][Aib]EG[Nle]STWS[Aib]RKK(Ac)[PEG2′][PEG2′][PEG2′][γGlu][γGlu]K([γGlu-Palmitoyl])-NH2 [peptide of SEQ ID NO: 119] | 1.21 | 83
Ac-LEGREKVRAQI[Aib][Aib]EG[Nle]STWS[Aib]RKK([γGlu-γGlu-PEG2″-PEG2″-γGlu-Stearoyl])-NH2 [peptide of SEQ ID NO: 104] | 0.16 | 89
Ac-LEGREKVRAK(Ac)I[Aib][Aib]EGQSTWS[Aib]RKK(Ac)K([PEG2″-PEG2″-PEG2″-γGlu-γGlu-γGlu-Stearoyl])-NH2 [peptide of SEQ ID NO: 113] | 0.53 | 89
Ac-LEGREKVRAQI[Aib][Aib]EG[Nle]STWS[Aib]RK[PEG2″][PEG2″]K([γGlu-γGlu-γGlu-Palmitoyl])-NH2 [peptide of SEQ ID NO: 11] | 14.7 | 89
Ac-LEGREKVRAQI[Aib][Aib]EG[Nle]STWS[Aib]RKKK([PEG12-γGlu-γGlu-γGlu-Stearoyl])-NH2 (SMILES CCCCCCCCCCCCCCCCCC(=O)N[C@@H](CCC(=O)N[C@@H](CCC(=O)N[C@@H](CCC(=O)NCCOCCOCCOCCOCCOCCOCCOCCOCCOCCOCCOCCOCCC(=O)NCCCC[C@H](NC(=O)[C@H](CCCCN)NC(=O)[C@H](CCCCN)NC(=O)[C@H](CCCNC(=N)N)NC(=O)C(C)(C)NC(=O)[C@H](CO)NC(=O)[C@H](Cc1c[nH]c2ccccc12)NC(=O)[C@@H](NC(=O)[C@H](CO)NC(=O)[C@H](CCCC)NC(=O)CNC(=O)[C@H](CCC(=O)O)NC(=O)C(C)(C)NC(=O)C(C)(C)NC(=O)[C@@H](NC(=O)[C@H](CCC(N)=O)NC(=O)[C@H](C)NC(=O)[C@H](CCCNC(=N)N)NC(=O)[C@@H](NC(=O)[C@H](CCCCN)NC(=O)[C@H](CCC(=O)O)NC(=O)[C@H](CCCNC(=N)N)NC(=O)CNC(=O)[C@H](CCC(=O)O)NC(=O)[C@H](CC(C)C)NC(C)=O)C(C)C)[C@@H](C)CC)[C@@H](C)O)C(N)=O)C(=O)O)C(=O)O)C(=O)O) [peptide of SEQ ID NO: 97] | 4.92 | 98
Ac-LEGREKVRAK(Ac)I[Aib][Aib]EG[Nle]STWS[Aib]RKKK([PEG2″-PEG2″-γGlu-γGlu-γGlu-PEG2″-γGlu-Stearoyl])-NH2 [peptide of SEQ ID NO: 102] | 0.08 | 80
Ac-LEGREKVRAQI[Aib][Aib]EG[Nle]STWS[Aib]RKKK[PEG2″][PEG2″][PEG2″][γGlu][γGlu][γGlu]K([γGlu-Palmitoyl])-NH2 [peptide of SEQ ID NO: 107] | 0.63 | 85
Ac-LEGREKVRAQI[Aib][Aib]EG[Nle]STWS[Aib]RKKK([PEG2′-PEG2′-γGlu-γGlu-PEG2′-γGlu-Stearoyl])-NH2 [peptide of SEQ ID NO: 99] | 0.01 | 87
Ac-LEGREKVRAQI[Aib][Aib]EG[Nle]STWS[Aib]RKKK[PEG2″][PEG2″][PEG2″][γGlu][γGlu]K([γGlu-Palmitoyl])-NH2 [peptide of SEQ ID NO: 109] | 0.15 | 98
Ac-LEGREKVRAQI[Aib][Aib]EG[Nle]STWS[Aib]RKK([PEG2″-PEG2″-γGlu-γGlu-PEG2″-γGlu-Stearoyl])-NH2 [peptide of SEQ ID NO: 100] | 0.16 | 90
Ac-LEGREKVRAQI[Aib][Aib]EG[Nle]STWS[Aib]RK[PEG2′]K([PEG2′-γGlu-γGlu-γGlu-Palmitoyl])-NH2 [peptide of SEQ ID NO: 12] | 26.7 | 76
Ac-LEGREKVRAK(Ac)I[Aib][Aib]EG[Nle]ST[1Nal]S[Aib]RKKK([PEG2″-PEG2″-γGlu-γGlu-γGlu-PEG2″-γGlu-Stearoyl])-NH2 [peptide of SEQ ID NO: 103] | 0.09 | 79
Ac-LEGREKVRAQI[Aib][Aib]EG[Nle]STWS[Aib]RKKK([γGlu-γGlu-PEG2″-PEG2″-γGlu-Stearoyl])-NH2 [peptide of SEQ ID NO: 105] | 0.03 | 88
LEGREKVRAXIXXEGQSTWSXRKKX (Ac-L-E-G-R-E-K-V-R-A-K(Ac)-I-Aib-Aib-E-G-Q-S-T-W-S-Aib-R-K-K-K(PEG2-PEG2-PEG2-gE-gE-gE-gE-gE-Stea)-NH2) [peptide of SEQ ID NO: 111] | 0.21 | 92
Ac-LEGREKVRAK(Ac)I[Aib][Aib]EG[Nle]STWS[Aib]RKK(Ac)K([PEG2″-PEG2″-γGlu-γGlu-PEG2″-γGlu-Stearoyl])-NH2 [peptide of SEQ ID NO: 101] | 0.16 | 86
Ac-LEGREKVRAQI[Aib][Aib]EG[Nle]STWS[Aib]RKKK([PEG2′-PEG2′-γGlu-γGlu-γGlu-PEG2′-Stearoyl])-NH2 [peptide of SEQ ID NO: 98] | 0.74 | 99
